Test system: Escherichia coli TOP10
Assay: shrunken log2 fold change of peptide-encoding DNA abundance (4.5 h post-induction vs induction); higher = less antimicrobial activity (less host growth inhibition)
Settings: time post-induction: 4.5 h; library: site-saturation at positions 5, 18, 19, 20
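Also: peptides expressed intracellularly from a pBAD plasmid library in pooled LB shake-flask culture, induced with 0.3% L-arabinose, DNA abundance read by NGS, three biological replicates, DESeq2 with apeglm shrinkage.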

## RRIRKRPPRLPRPRPRPCKRPRP
  shrunken log2 fold change: -0.194

## RRIRARPPRLPRPRPRPLLMPRP
  shrunken log2 fold change: 0.384

## RRIRCRPPRLPRPRPRPGRVPRP
  shrunken log2 fold change: 0.288

## RRIRCRPPRLPRPRPRPVYKPRP
  shrunken log2 fold change: -0.595

## RRIRKRPPRLPRPRPRPDCRPRP
  shrunken log2 fold change: -0.00777

## RRIRVRPPRLPRPRPRPNVIPRP
  shrunken log2 fold change: -0.329

## RRIRKRPPRLPRPRPRPYPQPRP
  shrunken log2 fold change: 0.0235

## RRIRYRPPRLPRPRPRPYSSPRP
  shrunken log2 fold change: -0.0396

## RRIRFRPPRLPRPRPRPIQKPRP
  shrunken log2 fold change: 0.00595

## RRIRIRPPRLPRPRPRPLQVPRP
  shrunken log2 fold change: -2

## RRIRWRPPRLPRPRPRPEYKPRP
  shrunken log2 fold change: 0.472

## RRIRGRPPRLPRPRPRPWPDPRP
  shrunken log2 fold change: 0.194

## RRIRVRPPRLPRPRPRPTACPRP
  shrunken log2 fold change: -0.124

## RRIRNRPPRLPRPRPRPISSPRP
  shrunken log2 fold change: -0.0365

## RRIRIRPPRLPRPRPRPVEPPRP
  shrunken log2 fold change: -0.115

## RRIRKRPPRLPRPRPRPDPTPRP
  shrunken log2 fold change: 0.273

## RRIRMRPPRLPRPRPRPHVDPRP
  shrunken log2 fold change: 0.51

## RRIRSRPPRLPRPRPRPIVSPRP
  shrunken log2 fold change: 0.0431

## RRIRIRPPRLPRPRPRPLMPPRP
  shrunken log2 fold change: 1.27

## RRIRYRPPRLPRPRPRPGATPRP
  shrunken log2 fold change: 0.128

## RRIRQRPPRLPRPRPRPLRFPRP
  shrunken log2 fold change: -0.041

## RRIRRRPPRLPRPRPRPWFDPRP
  shrunken log2 fold change: -0.064

## RRIRGRPPRLPRPRPRPDNDPRP
  shrunken log2 fold change: 0.0238

## RRIRDRPPRLPRPRPRPTLQPRP
  shrunken log2 fold change: 0.981

## RRIRMRPPRLPRPRPRPNSLPRP
  shrunken log2 fold change: -0.0986

## RRIRSRPPRLPRPRPRPDVMPRP
  shrunken log2 fold change: -0.0117

## RRIRNRPPRLPRPRPRPIIRPRP
  shrunken log2 fold change: -0.00165

## RRIRWRPPRLPRPRPRPRYAPRP
  shrunken log2 fold change: 0.32

## RRIRNRPPRLPRPRPRPRWHPRP
  shrunken log2 fold change: -0.114

## RRIRERPPRLPRPRPRPDNFPRP
  shrunken log2 fold change: 0.00707

## RRIRHRPPRLPRPRPRPYERPRP
  shrunken log2 fold change: -0.00674

## RRIRFRPPRLPRPRPRPREWPRP
  shrunken log2 fold change: 0.112

## RRIRIRPPRLPRPRPRPIDIPRP
  shrunken log2 fold change: -0.0353

## RRIRVRPPRLPRPRPRPMLAPRP
  shrunken log2 fold change: 0.446

## RRIRARPPRLPRPRPRPSASPRP
  shrunken log2 fold change: 0.167

## RRIRHRPPRLPRPRPRPITRPRP
  shrunken log2 fold change: -0.0356

## RRIRKRPPRLPRPRPRPNKGPRP
  shrunken log2 fold change: 0.0232

## RRIRARPPRLPRPRPRPKHPPRP
  shrunken log2 fold change: 0.199

## RRIRFRPPRLPRPRPRPLQTPRP
  shrunken log2 fold change: 0.165

## RRIRERPPRLPRPRPRPYWMPRP
  shrunken log2 fold change: -0.438

## RRIRQRPPRLPRPRPRPIEDPRP
  shrunken log2 fold change: -0.126

## RRIRVRPPRLPRPRPRPGPVPRP
  shrunken log2 fold change: 0.287

## RRIRQRPPRLPRPRPRPEQMPRP
  shrunken log2 fold change: -0.00448

## RRIRFRPPRLPRPRPRPYMGPRP
  shrunken log2 fold change: -0.225

## RRIRCRPPRLPRPRPRPSQHPRP
  shrunken log2 fold change: -0.114

## RRIRWRPPRLPRPRPRPRSEPRP
  shrunken log2 fold change: 0.0877

## RRIRVRPPRLPRPRPRPYVEPRP
  shrunken log2 fold change: -0.132

## RRIRVRPPRLPRPRPRPRTRPRP
  shrunken log2 fold change: 0.339

## RRIRFRPPRLPRPRPRPDNNPRP
  shrunken log2 fold change: -0.4

## RRIRVRPPRLPRPRPRPSQDPRP
  shrunken log2 fold change: -0.221

## RRIRMRPPRLPRPRPRPPLNPRP
  shrunken log2 fold change: 0.584

## RRIRLRPPRLPRPRPRPGHEPRP
  shrunken log2 fold change: -0.0844

## RRIRCRPPRLPRPRPRPRFEPRP
  shrunken log2 fold change: 0.115

## RRIRPRPPRLPRPRPRPAVEPRP
  shrunken log2 fold change: 0.014

## RRIRFRPPRLPRPRPRPCPEPRP
  shrunken log2 fold change: -0.2

## RRIRCRPPRLPRPRPRPTWGPRP
  shrunken log2 fold change: 0.301

## RRIRTRPPRLPRPRPRPWGEPRP
  shrunken log2 fold change: 0.183

## RRIRMRPPRLPRPRPRPNFVPRP
  shrunken log2 fold change: 0.0215

## RRIRCRPPRLPRPRPRPMGSPRP
  shrunken log2 fold change: 0.0655

## RRIRPRPPRLPRPRPRPLREPRP
  shrunken log2 fold change: 0.783

## RRIRERPPRLPRPRPRPREIPRP
  shrunken log2 fold change: 0.214

## RRIRERPPRLPRPRPRPAPDPRP
  shrunken log2 fold change: 0.26

## RRIRYRPPRLPRPRPRPYEQPRP
  shrunken log2 fold change: -0.0134

## RRIRQRPPRLPRPRPRPFKHPRP
  shrunken log2 fold change: -0.244

## RRIRVRPPRLPRPRPRPHEFPRP
  shrunken log2 fold change: -0.0515

## RRIRYRPPRLPRPRPRPAVIPRP
  shrunken log2 fold change: -0.0517

## RRIRERPPRLPRPRPRPEMAPRP
  shrunken log2 fold change: 0.414

## RRIRKRPPRLPRPRPRPATRPRP
  shrunken log2 fold change: 0.423

## RRIRNRPPRLPRPRPRPTSAPRP
  shrunken log2 fold change: 0.163

## RRIRERPPRLPRPRPRPFHTPRP
  shrunken log2 fold change: -0.0574

## RRIRARPPRLPRPRPRPEWNPRP
  shrunken log2 fold change: 0.76

## RRIRVRPPRLPRPRPRPHEEPRP
  shrunken log2 fold change: 0.0138

## RRIRSRPPRLPRPRPRPGRMPRP
  shrunken log2 fold change: 0.167

## RRIRIRPPRLPRPRPRPVLPPRP
  shrunken log2 fold change: -0.242

## RRIRNRPPRLPRPRPRPQMIPRP
  shrunken log2 fold change: -0.0608

## RRIRIRPPRLPRPRPRPLSIPRP
  shrunken log2 fold change: -0.493

## RRIRNRPPRLPRPRPRPVCCPRP
  shrunken log2 fold change: -0.146

## RRIRPRPPRLPRPRPRPNTKPRP
  shrunken log2 fold change: 0.0992

## RRIRMRPPRLPRPRPRPNMIPRP
  shrunken log2 fold change: -0.489

## RRIRERPPRLPRPRPRPITEPRP
  shrunken log2 fold change: -0.159

## RRIRNRPPRLPRPRPRPNSGPRP
  shrunken log2 fold change: -0.0638

## RRIRARPPRLPRPRPRPDNWPRP
  shrunken log2 fold change: 0.283

## RRIRQRPPRLPRPRPRPIYHPRP
  shrunken log2 fold change: -0.179

## RRIRYRPPRLPRPRPRPVSKPRP
  shrunken log2 fold change: -0.069

## RRIRRRPPRLPRPRPRPQDGPRP
  shrunken log2 fold change: 0.106

## RRIRYRPPRLPRPRPRPFQNPRP
  shrunken log2 fold change: -0.0769

## RRIRYRPPRLPRPRPRPHRTPRP
  shrunken log2 fold change: -0.527

## RRIRERPPRLPRPRPRPHHCPRP
  shrunken log2 fold change: -0.0231

## RRIRWRPPRLPRPRPRPPHRPRP
  shrunken log2 fold change: 0.321

## RRIRARPPRLPRPRPRPNRQPRP
  shrunken log2 fold change: 0.257

## RRIRTRPPRLPRPRPRPLGWPRP
  shrunken log2 fold change: 0.811

## RRIRGRPPRLPRPRPRPPVVPRP
  shrunken log2 fold change: 1.7

## RRIRPRPPRLPRPRPRPLHVPRP
  shrunken log2 fold change: -0.163

## RRIRTRPPRLPRPRPRPTEIPRP
  shrunken log2 fold change: -0.119

## RRIRKRPPRLPRPRPRPSQFPRP
  shrunken log2 fold change: 0.164

## RRIRTRPPRLPRPRPRPDQWPRP
  shrunken log2 fold change: -0.00805

## RRIRVRPPRLPRPRPRPFNKPRP
  shrunken log2 fold change: 0.791

## RRIRVRPPRLPRPRPRPYNMPRP
  shrunken log2 fold change: -0.979

## RRIRSRPPRLPRPRPRPYDMPRP
  shrunken log2 fold change: -0.122

## RRIRRRPPRLPRPRPRPSTMPRP
  shrunken log2 fold change: -0.467

## RRIRWRPPRLPRPRPRPRWHPRP
  shrunken log2 fold change: 0.271

## RRIRSRPPRLPRPRPRPWYLPRP
  shrunken log2 fold change: -0.617

## RRIRARPPRLPRPRPRPGVLPRP
  shrunken log2 fold change: 0.2

## RRIRDRPPRLPRPRPRPFNTPRP
  shrunken log2 fold change: -0.686

## RRIRDRPPRLPRPRPRPLCMPRP
  shrunken log2 fold change: 0.43

## RRIRLRPPRLPRPRPRPDYEPRP
  shrunken log2 fold change: -0.645

## RRIRARPPRLPRPRPRPISDPRP
  shrunken log2 fold change: 0.266

## RRIRNRPPRLPRPRPRPMWFPRP
  shrunken log2 fold change: 0.0647

## RRIRTRPPRLPRPRPRPMYIPRP
  shrunken log2 fold change: -1.2

## RRIRSRPPRLPRPRPRPEMVPRP
  shrunken log2 fold change: 0.0797

## RRIRARPPRLPRPRPRPGKGPRP
  shrunken log2 fold change: 0.158

## RRIRVRPPRLPRPRPRPFNLPRP
  shrunken log2 fold change: -0.103

## RRIRLRPPRLPRPRPRPPVDPRP
  shrunken log2 fold change: 0.539

## RRIRYRPPRLPRPRPRPSTFPRP
  shrunken log2 fold change: -0.282

## RRIRYRPPRLPRPRPRPKRWPRP
  shrunken log2 fold change: 0.165

## RRIRERPPRLPRPRPRPIWEPRP
  shrunken log2 fold change: 0.0512

## RRIRGRPPRLPRPRPRPNYYPRP
  shrunken log2 fold change: -0.254

## RRIRVRPPRLPRPRPRPQNCPRP
  shrunken log2 fold change: -0.205

## RRIRTRPPRLPRPRPRPDFVPRP
  shrunken log2 fold change: -0.106

## RRIRGRPPRLPRPRPRPEPVPRP
  shrunken log2 fold change: 0.806

## RRIRPRPPRLPRPRPRPNMTPRP
  shrunken log2 fold change: -0.13

## RRIRRRPPRLPRPRPRPGEVPRP
  shrunken log2 fold change: 1.28

## RRIRCRPPRLPRPRPRPCWWPRP
  shrunken log2 fold change: 0.904

## RRIRQRPPRLPRPRPRPALDPRP
  shrunken log2 fold change: 0.296

## RRIRPRPPRLPRPRPRPYIHPRP
  shrunken log2 fold change: -0.946
